From patent US7517652B2, “Methods of diagnosing tumors using the G-protein coupled receptor (GPCR), RAI-3” (Bristol-Myers Squibb Company, priority 2002, dated 2009)

System: Flag-RAI-3
Assay: Anti-FLAG immunoprecipitation and anti-phosphotyrosine Western blot of A549 cells transiently transfected with Flag-RAI-3
Assay type: cell-based, human
Conditions: CS-160 1 to 3 hours, EGF 10 nM
Experimental: FIGS. 26A and 26B illustrate the results of Western Blot analysis of an A549 cell line (Human Lung Carcinoma CCL-185, American Type Culture Collection, Manassas, Va.) transiently transfected with a FLAG RAI-3 construct (described herein). Media on the cells was changed to serum-free and 48 hours port-transfection the cells were treated with cigarette smoke-bubbled media (i.e., CS-160, the equivalent of 160 cigarettes per 500 ml of cell medium) for the periods of time shown (1 hr., 2 hr., and 3 hr.) and with EGF (10 nM) for 5 minutes. Lysates were immuno-precipitated with 2 μg of anti-FLAG M2 antibody (Catalog # F-3165, Sigma, Saint Louis, Mo.) and 40 μl of Protein A. The Protein A/lysate/antibody mixture was washed, aspirated “dry”, and 60 μl of 2×SDS-PAGE sample buffer was added. After heating at 95° C. for 10 minutes, the samples were loaded onto two 4-20% gradient gels, resolved by SDS-PAGE and transferred to nitrocellulose by standard Western Blotting techniques.
The A549 cell line (American Type Culture Collection, Manassas, Va.) was plated in 100 mm petri dishes and transfected at about 75% confluency. […]

B1: epidermal growth factor (protein, UniProt P01133 23-1207, looked up)
Pro-epidermal growth factor: PQHWSCPEGTLAGNGNSTCVGPAPFLIFSHGNSIFRIDTEGTNYEQLVVDAGVSVIMDFHYNEKRIYWVDLERQLLQRVFLNGSRQERVCNIEKNVSGMAINWINEEVIWSNQQEGIITVTDMKGNNSHILLSALKYPANVAVDPVERFIFWSSEVAGSLYRADLDGVGVKALLETSEKITAVSLDVLDKRLFWIQYNREGSNSLICSCDYDGGSVHISKHPTQHNLFAMSLFGDRIFYSTWKMKTIWIANKHTGKDMVRINLHSSFVPLGELKVVHPLAQPKAEDDTWEPEQKLCKLRKGNCSSTVCGQDLQSHLCMCAEGYALSRDRKYCEDVNECAFWNHGCTLGCKNTPGSYYCTCPVGFVLLPDGKRCHQLVSCPRNVSECSHDCVLTSEGPLCFCPEGSVLERDGKTCSGCSSPDNGGCSQLCVPLSPVSWECDCFPGYDLQLDEKSCAASGPQPFLLFANSQDIRHMHFDGTDYGTLLSQQMGMVYALDHDPVENKIYFAHTALKWIERANMDGSQRERLIEEGVDVPEGLAVDWIGRRFYWTDRGKSLIGRSDLNGKRSKIITKENISQPRGIAVHPMAKRLFWTDTGINPRIESSSLQGLGRLVIASSDLIWPSGITIDFLTDKLYWCDAKQSVIEMANLDGSKRRRLTQNDVGHPFAVAVFEDYVWFSDWAMPSVMRVNKRTGKDRVRLQGSMLKPSSLVVVHPLAKPGADPCLYQNGGCEHICKKRLGTAWCSCREGFMKASDGKTCLALDGHQLLAGGEVDLKNQVTPLDILSKTRVSEDNITESQHMLVAEIMVSDQDDCAPVGCSMYARCISEGEDATCQCLKGFAGDGKLCSDIDECEMGVPVCPPASSKCINTEGGYVCRCSEGYQGDGIHCLDIDECQLGEHSCGENASCTNTEGGYTCMCAGRLSEPGLICPDSTPPPHLREDDHHYSVRNSDSECPLSHDGYCLHDGVCMYIEALDKYACNCVVGYIGERCQYRDLKWWELRHAGHGQQQKVIVVAVCVVVLVMLLLLSLWGAHYYRTQKLLSKNPKNPYEESSRDVRSRRPADTEDGMSSCPQPWFVVIKEHQDLKNGGQPVAGEDGQAADGSMQPTSWRQEPQLCGMGTEQGCWIPVSSDKGSCPQVMERSFHMPSYGTQTLEGGVEKPHSLLSANPLWQQRALDPPHQMELTQ
modifications: Pro-epidermal growth factor
With B1 the “tyrosine phosphorylation of recombinant Flag-RAI-3 protein” value was “does not appear to cause tyrosine phosphorylation”.
